IntAct's records for PubMed 21057455

B1: Transcription elongation factor SPT6 (Saccharomyces cerevisiae), P23615 (parent)
chain: MEETGDSKLVPRDEEEIVNDNDETKAPSEEEEGEDVFDSSEEDEDIDEDEDEARKVQEGFIVNDDDENEDPGTSISKKRRKHKRREREEDDRLSEDDLDLLMENAGVERTKASSSSGKFKRLKRVGDEGNAAESESDNVAASRQDSTSKLEDFFSEDEEEEESGLRNGRNNEYGRDEEDHENRNRTADKGGILDELDDFIEDDEFSDEDDETRQRRIQEKKLLREQSIKQPTQITGLSSDKIDEMYDIFGDGHDYDWALEIENEELENGNDNNEAEEEEIDEETGAIKSTKKKISLQDIYDLEDLKKNLMTEGDMKIRKTDIPERYQELRAGITDYGNMSSEDQELERNWIAEKISVDKNFDANYDLTEFKEAIGNAIKFITKENLEVPFIYAYRRNYISSREKDGFLLTEDDLWDIVSLDIEFHSLVNKKDYVQRFYAELHIDDPIVTEYFKNQNTASIAELNSLQDIYDYLEFKYANEINEMFINHTGKTGKKHLKNSSYEKFKASPLYQAVSDIGISAEDVGENISSQHQIHPPVDHPSSKPVEVIESILNANSGDLQVFTSNTKLAIDTVQKYYSLELSKNTKIREKVRSDFSKYYLADVVLTAKGKKEIQKGSLYEDIKYAINRTPMHFRRDPDVFLKMVEAESLNLLSVKLHMSSQAQYIEHLFQIALETTNTSDIAIEWNNFRKLAFNQAMDKIFQDISQEVKDNLTKNCQKLVAKTVRHKFMTKLDQAPFIPNVRDPKIPKILSLTCGQGRFGADAIIAVYVNRKGDFIRDYKIVDNPFDKTNPEKFEDTLDNIIQSCQPNAIGINGPNPKTQKFYKRLQEVLHKKQIVDSRGHTIPIIYVEDEVAIRYQNSERAAQEFPNKPPLVKYCIALARYMHSPLLEYANLTSEEVRSLSIHPHQNLLSSEQLSWALETAFVDIVNLVSVEVNKATDNNYYASALKYISGFGKRKAIDFLQSLQRLNEPLLARQQLITHNILHKTIFMNSAGFLYISWNEKRQKYEDLEHDQLDSTRIHPEDYHLATKVAADALEYDPDTIAEKEEQGTMSEFIELLREDPDRRAKLESLNLESYAEELEKNTGLRKLNNLNTIVLELLDGFEELRNDFHPLQGDEIFQSLTGESEKTFFKGSIIPVRVERFWHNDIICTTNSEVECVVNAQRHAGAQLRRPANEIYEIGKTYPAKVIYIDYANITAEVSLLDHDVKQQYVPISYSKDPSIWDLKQELEDAEEERKLMMAEARAKRTHRVINHPYYFPFNGRQAEDYLRSKERGEFVIRQSSRGDDHLVITWKLDKDLFQHIDIQELEKENPLALGKVLIVDNQKYNDLDQIIVEYLQNKVRLLNEMTSSEKFKSGTKKDVVKFIEDYSRVNPNKSVYYFSLNHDNPGWFYLMFKINANSKLYTWNVKLTNTGYFLVNYNYPSVIQLCNGFKTLLKSNSSKNRMNNYR
partner: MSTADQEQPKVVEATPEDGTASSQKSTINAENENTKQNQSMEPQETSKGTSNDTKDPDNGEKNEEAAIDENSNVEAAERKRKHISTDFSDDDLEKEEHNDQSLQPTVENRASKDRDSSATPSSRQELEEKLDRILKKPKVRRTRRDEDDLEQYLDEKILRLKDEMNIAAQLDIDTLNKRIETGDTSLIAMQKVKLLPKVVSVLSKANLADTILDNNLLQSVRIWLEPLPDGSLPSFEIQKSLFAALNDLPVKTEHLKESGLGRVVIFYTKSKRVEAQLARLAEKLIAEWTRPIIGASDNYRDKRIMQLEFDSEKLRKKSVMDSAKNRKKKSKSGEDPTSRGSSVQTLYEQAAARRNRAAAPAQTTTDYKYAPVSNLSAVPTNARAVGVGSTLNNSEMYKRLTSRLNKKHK
B2: Mediator of RNA polymerase II transcription subunit 13 (Saccharomyces cerevisiae), P38931 (parent)
chain: MSSDASTYRLEDVLSSFYRVEKIKKINYHQYISKAQNDQWSIQMEFMLRKQDPKTLVALLSRDLWCFSINDDPVPTPPAIEHKPVSPDKIGTFTADYSKPNLPPHYALFLKALRRKIYINLALGSHNKLIQFGNACISLSGVPNYLVQLEPHLFVNGDLTVSLCAKNMGLVPMKEENLEESFLSKHALYLAPSGIRMHLAPASKQGYLITPPKHTELLLTTLSVSHGINLQNKKNLKWVAVVPDLGHLNGHTPTIASYLTPLLEAKKLVWPLHLIFAQPVADIENSTSGDPSEFHCLQDALDAIDDFIQLKQTAAYRTPGSSGVLSSNIAGTNPLSSDGAYTEQFQHYKNNSISSQPASYHSVQETNKISPKDFSPNFTGIDKLMLSPSDQFAPAFLNTPNNNINENELFNDRKQTTVSNDLENSPLKTELEANGRSLEKVNNSVSKTGSVDTLHNKEGTLEQREQNENLPSDKSDSMVDKELFGEDEDEDLFGDSNKSNSTNESNKSISDEITEDMFEMSDEEENNNNKSINKNNKEMHTDLGKDIPFFPSSEKPNIRTMSGTTKRLNGKRKYLDIPIDEMTLPTSPLYMDPGAPLPVETPRDRRKSVFAPLNFNPIIENNVDNKYKSGGKFSFSPLQKEEALNFDISMADLSSSEEEEDEEENGSSDEDLKSLNVRDDMKPSDNISTNTNIHEPQYINYSSIPSLQDSIIKQENFNSVNDANITSNKEGFNSIWKIPQNDIPQTESPLKTVDSSIQPIESNIKMTLEDNNVTSNPSEFTPNMVNSEISNLPKDKSGIPEFTPADPNLSFESSSSLPFLLRHMPLASIPDIFITPTPVVTISEKEQDILDLIAEQVVTDYNILGNLGIPKIAYRGVKDCQEGLITTTMLQLFSTFDRLNGNDTISKFYNMKQPYVFVKKHHELIKVKHDSQPFIKFLNFRPPNGIKNFKSLLLSSSFKEDCLSFAPTLSQTYINQELGFCELLKLTNEDPPGLMYLKAFDKNKLLLLAAQIVSYCSNNKNSIKNVPPILIILPLDNATLTELVDKANIFQVIKNEVCAKMPNIELYLKVIPMDFIRNVLVTVDQYVNVAISIYNMLPPKSVKFTHIAHTLPEKVNFRTMQQQQMQQQQQQQQQQQNNSTGSSSIIYYDSYIHLAYSRSVDKEWVFAALSDSYGQGSMTKTWYVGNSRGKFDDACNQIWNIALNLASKKFGKICLILTRLNGILPDDELMNWRRLSGRNIHLAVVCVDDNSKISFIDEDKLYPSFKPIYKDTRFGGRMDMTRLYDYEIRDIDQDIHGIVFQHPFPLAHSQHRCAIRSGALIKFKKCDGDTVWDKFAVNLLNCPHSDSTQLLETILEEFRNLAALNVWYGLSDGEDGHIPWHILAVKKMMNTLVHTRVKIANTSAATVHTATSSSIILSDK
partner: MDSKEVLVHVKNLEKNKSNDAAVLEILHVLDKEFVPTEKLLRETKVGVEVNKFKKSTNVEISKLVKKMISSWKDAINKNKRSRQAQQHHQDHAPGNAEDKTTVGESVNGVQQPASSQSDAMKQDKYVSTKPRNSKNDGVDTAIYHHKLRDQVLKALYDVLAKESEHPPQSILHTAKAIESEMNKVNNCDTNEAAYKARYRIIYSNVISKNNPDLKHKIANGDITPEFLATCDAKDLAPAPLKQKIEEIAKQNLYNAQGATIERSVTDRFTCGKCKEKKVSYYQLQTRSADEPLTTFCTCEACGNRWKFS
B3: SAGA complex subunit SPT8 (Saccharomyces cerevisiae), P38915 (parent)
chain: MDEVDDILINNQVVDDEEDDEEMLSGLENDSKQDLEGNDDGGEDEEDDDDDDEDDDDDEDEREDDDEQEDDDGEDDAARMDKTATPTNEHQHDEQKAAAAGAGGAGDSGDAVTKIGSEDVKLSDVDGGVGSREASSSTHEASANGEVYEYYKHMLNAAQIADSYNIYPTAAIPIQTHVNALAVSRGLKYLFLGGSDGYIRKYDLLNTLEGKLSLTILQKHSLAESIQNAGILQSYWENEIPQKKSEMKLSANKTDYEPKVSPVHSLEVQSECLFILSGLQNGGITMQGVRYMEGSIAHYFKGRNGHTQIVNILRLNGQEDRFLSGSWDKRLLEWDLQTGDIVNEFKKSRSELSSLEMRPLYSSVDVSGNVNSGKENENADDDMDSLFGDEDEDEKQDAGNEPVETGDGSNGEENKEQISEESLNIVYDESVFMTSGLNGSVHIWDRRMTQSPALSLERGAGVPPWCLSACWGVDGDHVYAGRRNACVEQFDLKMPSKPIHNLKLPSISGPVSCVKAMPNNKHLLCASRDNIRLYNVEIAVDASNSTTKSSKVPFLIVPGHHGGIISNLYLDPTSRFIISTSGNRGWQGNSTDTTLIYDIDLE
partner: B2 partner

Variants of: B1
Conditions: with iws1_yeast SPN1, Q06505

| effect of a mutation on the interaction | Variant |
| --- | --- |
| disrupting interaction | I248A |
| disrupting interaction | F249A |

Variants of: B2
Conditions: with tfs2_yeast DST1, P07273

| effect of a mutation on the interaction | Variant |
| --- | --- |
| decreasing interaction | F484A |
| decreasing interaction | L483A |

Variants of: B3
Conditions: with tfs2_yeast DST1, P07273

| effect of a mutation on the interaction | Variant |
| --- | --- |
| disrupting interaction | L386A |
| disrupting interaction | F387A |
